Our source for the amyloid nucleation score values is the supplement of paper PMC12042874.

± gives the uncertainty stated by the source.

A short description of the series: amyloid nucleation score (Sup35N fusion, yeast selection) (log enrichment); library NNK2; higher = more nucleation; inactive = no reads after selection. An outline of the steps: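 The nucleation score is the DiMSum log enrichment of output over input reads, centred on the mode score of non-aggregating sequences. Only sequences with 100 or more input reads were scored, using Illumina sequencing of input and output plasmid inserts. Psi-negative yeast expressing Sup35N fused to peptides of 20 random codons were induced 24 hours with 100 μM copper sulfate and grown 7 days at 30°C on medium lacking adenine and uracil.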
For LYDFRDSYAYVCLTGYKYLG, the amyloid nucleation score was found to be 1.02 ± 0.57.
On to SLAIAVNAMIHNIPADIWMH, for which the amyloid nucleation score stood at 6.27 ± 0.083.
The result for ANFGALHRAHESVECSLY reads “inactive”.
The result for NVMKSLFGRC reads 0.359 ± 0.48.
The same measure for CTFSRMSVFACILANQSVFY: 7.861 ± 0.038.
Substance SCMFYYCCTDTYKVPYSDAM came in with an amyloid nucleation score of 7.759 ± 0.067.
The result for FFVMGRSGYSLVALKREKSI reads “inactive”; that for RSDVSLVYNLWALWWAR, 0.906 ± 0.52; that for GLRRVKFYIKVIFAKSSLVI, -1.84 ± 0.49.
The same measure for LTTPLSRQVCMRFRAFNPEA: -0.655 ± 0.41.
The same measure for QRSNGTNYHPPYKMKISHRP: “inactive”; for TFIHN: -0.161 ± 0.19.
In the case of LWGLYNREFNAWRGHFVQDG, the amyloid nucleation score entry was “inactive”.
The result for PKPLVGMLCCHSMTRGKVTL reads 3.28 ± 0.07; that for GEDHYIPQLFDGSVIILART, 0.117 ± 0.79.
In turn, LTSSSSSQVWGLYVYDGHLK had an amyloid nucleation score of -0.045 ± 0.38.
The same measure for LVTRTVWGLK: 0.223 ± 0.21; for KCVRKCYDIYGLLSCCGRLA: 8.844 ± 0.039.
With DETNGTGSRVRLVRRYER, the amyloid nucleation score was 0.946 ± 0.27.
The same measure for FYKREVIFVLRLFFTVKQGR: -1.73 ± 1.1.
The result for RRVDWDYLPLFMQAAPYSWK reads -0.197 ± 0.22.
The same measure for HEMRDGNSRLMFYWGVSCNM: 0.062 ± 0.45; for VVLLAKYQVCIICIKEDLSN: 3.78 ± 0.12; for LAGLYYVGVVENGMDMQDRK: -0.329 ± 0.29.
Regarding VAGIVYLGARW, the amyloid nucleation score came to 5.43 ± 0.086.
The same measure for TLAWGSGELTTLTADEDLPS: 0.58 ± 0.19; for CRFALSMYNWVLYNRNFQLI: -0.363 ± 1.1.
The same measure for SYHRS: 0.086 ± 0.24; for VFCHLE: 2.43 ± 0.13.
For the substance SLSGRLMNFYIMQNSIPTWW, the amyloid nucleation score was determined as 6.792 ± 0.041.
As to LSLTNIYGKSIRDERIKTSC, the amyloid nucleation score was -0.129 ± 0.65.
The result for FELIFELLLKKCALI reads 0.032 ± 0.54.
The same measure for MRLFFLVLICAYVVESGFQC: 0.72 ± 0.25; for DSWFRPVLNFPCSRNANKSL: 1.95 ± 0.25.
For the substance GLQRKGCP, the amyloid nucleation score is -0.356 ± 1.1.
SSIVSSPVCPLCGWGWF yielded an amyloid nucleation score of 5.55 ± 0.069.
The same measure for NWSHELQIQLCAMAYREWSE: 5.777 ± 0.038.
The result for VGSGGKGSMFYGYIELIFM reads -0.641 ± 1.1; that for PLYEELVWGRFRLMVYTGRF, -0.193 ± 0.76; that for FNIMIWA, “inactive”.
The result for SNIRISTADDSNSFLPFSSA reads -0.315 ± 0.43.
For CTAYYCDVSLNYVVRYNFPL, the amyloid nucleation score result is “inactive”.
Take FWCINVSTWYNNQELI: the amyloid nucleation score result was “inactive”.
The same measure for FSGSTIDWL: -0.302 ± 0.3; for YVDWVNRTFQWFTGDVDDPV: -0.107 ± 0.39.
The same measure for NFFPCACNNGAPIKEDFTCR: 2.84 ± 0.17.
The result for SFLDYRSLTVMFVAGQSTVR reads -0.645 ± 0.53; that for TLTKKLHIGMLYPYHTLMLR, -0.596 ± 0.76; that for IKFTLHCYDCVVFNC, 6.937 ± 0.056.
On to TNRIGFFLFCTAV, for which the amyloid nucleation score is -0.049 ± 0.76.
As to TFSLLGL, the amyloid nucleation score came out at 4.1 ± 0.064.
IACIEHWALGWLLCVSGVRV: the amyloid nucleation score came out at 0.534 ± 0.5.
The result for YYSISGISFWFSK reads 8.381 ± 0.06; that for VTEHRNHIKTWTTQSSLCDW, 0.124 ± 0.37.
For QKLLWCYACNVMRARSGSGT, the amyloid nucleation score turned out to be 7.18 ± 0.044.
The result for STSFIL reads -0.718 ± 0.76.
The result for YLPPNKNWFFVWVDFSSWVF reads -0.627 ± 0.61.
The same measure for FVGTAQEEIHGFMNCIVELR: “inactive”; for MFLSNDIAFVKNVLNRIRYL: -0.642 ± 0.78; for TIPVRPTMEYCTQLLTLLQ: 0.293 ± 0.47.
IIEIEGVCAFDWLRIFLILI came in with an amyloid nucleation score of -1.27 ± 0.47.
The result for GTLWRFKESTMGLTGITAGT reads 0.987 ± 0.4; that for SVFCCLYLYSG, 9.035 ± 0.023; that for DVVEDF, -0.02 ± 0.49.
Regarding FRDANKGCIEKFVVTCDFRM, the amyloid nucleation score was found to be 0.003 ± 0.38.
The result for SEHLTCLWCLW reads 9.924 ± 0.064; that for PTSWFRSNMKWFYPVSQPHW, -0.434 ± 0.64.
The same measure for RAIFR: -0.686 ± 0.56; for VFDIWFLGSDTSSCVNWTYR: 6.583 ± 0.048; for FSEPWKWYYADLVFLSVTWL: “inactive”.
The same measure for HGGGVLHIFLNIAPLVS: 1.52 ± 0.28.
With FSGRKPSIVLHHSSECQP, the amyloid nucleation score is 2.38 ± 0.2.
The result for WSRQHDSLMVLWGCRGYY reads 0.148 ± 0.5; that for QSLHTSANSLLNWNFMSLLT, 0.871 ± 0.29.
The same measure for ILKRMLRCIYNFNISVWIIR: -0.578 ± 0.31; for HIRGVIVGRAPDRCI: “inactive”; for RHVCYGGQYLVANHSGM: -0.267 ± 0.65.
The same measure for SDMRCGYMLRCWLVQRVSHR: 1.48 ± 0.54.
GIGYRNVISSIMGFRFTGIR gave an amyloid nucleation score of 0.109 ± 0.53.
In turn, IYTRFQLFR gave an amyloid nucleation score of 4.5 ± 0.069.
The same measure for EVPCWMTRSSMECNVDYWEG: 0.797 ± 0.2.
The result for RLNYA reads 0.772 ± 0.81; that for WLLLYTCHLMISQISFHRKS, -0.874 ± 0.61.
The same measure for FRRNKNN: “inactive”; for VRSSPTRVRERRSIILVLNC: 0.594 ± 0.81.
IVKYTGSKIYKFWYDLAGPL came in with an amyloid nucleation score of -1.06 ± 1.1.
The same measure for LFHCLSELLVGSSNSRFVCE: 0.456 ± 0.42; for WLTLGVYELRWMRSPNTGCL: 1.8 ± 0.23.
Regarding WTWFESVLRPCKGLGRAPHI, the amyloid nucleation score was -0.172 ± 0.8.
The result for LAYLYTCLLLWSGSCNMTQV reads “inactive”.
The result for TCYLGPWCPIHDTRIRPGWV reads 0.698 ± 0.21; that for KDFLANPKGESGQQRTMQCI, -0.502 ± 0.79.
The result for SMFNCNWYCGCCMCNLGCLA reads 7.334 ± 0.035; that for FFIQLSIPERFTVRVLIRRR, “inactive”.
Regarding NDYLFIFHLFCLVSCLMNKW, the amyloid nucleation score is -0.228 ± 1.1.
The result for VFRGAVSWTVLIGDNKVVLY reads 0.674 ± 0.45; that for VAMVLLC, 1.03 ± 0.21.
In turn, FASYRVY gave an amyloid nucleation score of 0.305 ± 1.
The result for EFNLLRYSVETNIISEKKLV reads 0.129 ± 0.54.
The same measure for QFFRPRDVRERAEWNLAKLV: 2.61 ± 0.12.
The same measure for EIIYSQSDSVYGCGGY: “inactive”; for ICGVKRKKNVILSYFISMEY: “inactive”; for DAAEISGLCLYDFLTGDLEQ: 2.27 ± 0.12.
VNRAR returned an amyloid nucleation score of -0.545 ± 0.63.
Substance SDGSREFSCKLGGAGLGDGW showed an amyloid nucleation score of 0.334 ± 0.5.
The same measure for IPKHLSSSVYAYYDLRLVFV: 0.08 ± 0.22; for LYRQTLLSHL: -0.231 ± 0.24; for YAESSNDARSSFISKVSAFI: “inactive”.
GLSAHYA came in with an amyloid nucleation score of 0.113 ± 1.1.
The same measure for QIFRLDFDARDSWAKMLESL: 0.536 ± 0.12.
The same measure for WSWSLGNYYAHNVDCYSVGC: -0.266 ± 0.41; for FCREWDRSRQKG: 0.508 ± 0.25.
The same measure for SWMIYLCRVGTITRMQDWLW: -0.445 ± 0.35.
The substance RWFIDYHGSVFCFQKYIPPV came in with an amyloid nucleation score of -0.526 ± 0.54.
The same measure for ARLSWWGS: -0.184 ± 0.29; for RSVRSFCVWKVELFVRSEGM: 2.01 ± 0.15.
As to KPNFIRLYRIKFNKLGLGIT, the amyloid nucleation score was -0.855 ± 1.
The result for LFMNRHVYVLQVVEMYKRQT reads -1.07 ± 1.1; that for CFAYSSWDTPDMMAWVCRWD, 0.154 ± 0.65; that for EMSRMASNISRMKVSRASKH, 1.15 ± 0.38.
The result for IIQISSYSALWFRW reads 0.724 ± 0.14; that for WQIGPCYNVLRFLKWFWSLR, -0.637 ± 1.1.
The substance FSPLC registered an amyloid nucleation score of 1.83 ± 0.14.
The result for STSQWYRVLVRVVCSPM reads 0.331 ± 0.4.
The result for CNNQEMPTSGWMSCFSCALC reads 1.48 ± 0.32.
The same measure for MVRIGELSPRCNSFV: 0.075 ± 0.53; for GLKDAIMYSVVTLIRYRQDD: -0.809 ± 0.56; for WMIGRCD: 0.319 ± 0.61.
As for FLVVGGT, the amyloid nucleation score was -0.112 ± 0.21.
For the substance VMMNSCNCRSYTLYLL, the amyloid nucleation score was 9.183 ± 0.075.
In the case of TDLNHACCSNPLSF, the amyloid nucleation score is -0.468 ± 0.61.
The same measure for YTEQVYVYLGFLSHGASRYL: -0.716 ± 1.1; for IPFQEWNSMFIKLSELTVES: 3.97 ± 0.058; for SHDAYGIYRLQ: 0.696 ± 0.38.
SISIPCRYYKGLRSTSLYSR: the amyloid nucleation score was -0.264 ± 0.26.
The result for ARNTTGGSYV reads 0.504 ± 0.74; that for YGQLRHFVRTGLDGGTHRGL, -0.174 ± 0.76; that for TRQKACMISKASPLGSSEYA, “inactive”.
Substance SKGNVV had an amyloid nucleation score of 0.709 ± 0.42.
